The chains are these.
B1: INTS4 (parent)
chain: TIIEPAGESDNPLRFTSGLVVALD
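Further: lentivirally expressed fusions sorted by FACS into six bins by GFP to DsRed ratio, PSI derived from sequencing read proportions per bin multiplied by bin number.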

The variants in this series derive from B1. The series can be described thus: protein stability index of a GFP-peptide fusion (GPS, HEK-293T) (PSI 1-6); higher = more stable. As to conditions: c terminus: a fixed tail appended.
With TIIEPAGESDNPLRFTSGLVVDLD, the protein stability index turned out to be 3.8.
The same measure for TIIEPAGESDNPLRFTSGLVVTLD: 2.78; for TIIEPAGESDNPLRFTSGLVVLLD: 1.73; for TIIEPAGESDNPLRFTSGLVVYLD: 2.45.
The same measure for TIIEAAGESDNPLRFTSGLVVALD: 2.37; for TIIERAGESDNPLRFTSGLVVALD: 2.51.
With TIIEQAGESDNPLRFTSGLVVALD the figure was 2.49; with TIIEEAGESDNPLRFTSGLVVALD, 3.31; with TIIEPAGESDNPLRFTSGLVVACD, 3.62.
As to TIIEPAGESDNPLRFTSGLVVAYD, the protein stability index is 3.29.
With TIIEPAGEKDNPLRFTSGLVVALD the figure was 2.87; with TIIEPAGEWDNPLRFTSGLVVALD, 2.19.
The same measure for TIIEPAGEFDNPLRFTSGLVVALD: 2.65; for TIIEPAGEPDNPLRFTSGLVVALD: 3.25.
With TIIEPAGEVDNPLRFTSGLVVALD, the protein stability index is 2.92.
The same measure for TIIEPAGESDNLLRFTSGLVVALD: 2.1.
As to TIIEPAGESDNYLRFTSGLVVALD, the protein stability index stood at 1.96.
The same measure for TIIEPAGESDNNLRFTSGLVVALD: 2.88; for TIIEPAGESDNHLRFTSGLVVALD: 2.61.
Consider TIIEPAGESDNPLRFTSGLEVALD, for which the protein stability index was determined as 4.03.
With TIIEPAGESDNPLRFTSGLQVALD the figure was 3.91; with TIIEPAGESDNPLRFTSGLGVALD, 3.76; with TIIEPAGESDNPLRFTSGLDVALD, 4.38.
For TIIEPAGESDNPLRFTSGLMVALD, the protein stability index amounted to 2.59.
Turning to TIIEPAGESDNPLRFTSGLVHALD, the protein stability index stood at 3.27.
With TIIEPAGESDNPLRFTSGLVYALD the figure was 3; with TIIEPAGESDNPLRFTSGLVQALD, 3.71; with TIIEPAGESDNPLCFTSGLVVALD, 2.62.
With TIIEPAGESDNPLMFTSGLVVALD the figure was 2.27; with TIIEPAGESDNPLRFTSGFVVALD, 2.38.
The same measure for TIIEPAGESDNPLRFTSGIVVALD: 2.71; for TIIEPAGESDNPLRFTSGQVVALD: 4.05.
For TIIEPAGESDNPLRFTSGMVVALD, the protein stability index worked out at 2.83.
With TIIEPAGESDNPLRFTSGHVVALD the figure was 3.59; with TIIEPAGESDNPLRFTSGDVVALD, 4.96.
For TIIEPAGFSDNPLRFTSGLVVALD, the protein stability index worked out at 2.19.
The same measure for TIIEPAGWSDNPLRFTSGLVVALD: 1.5.
With TIIEPAGTSDNPLRFTSGLVVALD the figure was 2.61.
With TIIEPAGMSDNPLRFTSGLVVALD the figure was 2.54.
As to TIDEPAGESDNPLRFTSGLVVALD, the protein stability index amounted to 4.07.
For TIMEPAGESDNPLRFTSGLVVALD, the protein stability index turned out to be 3.23.
The same measure for TIIEPAYESDNPLRFTSGLVVALD: 2.45; for TIIEPAFESDNPLRFTSGLVVALD: 2.78.
With TIIEPAPESDNPLRFTSGLVVALD the figure was 3.04.
For TIIEPARESDNPLRFTSGLVVALD, the protein stability index amounted to 3.54.
Consider TIIEPADESDNPLRFTSGLVVALD, for which the protein stability index worked out at 3.74.
The same measure for TIIEPAGESDNPMRFTSGLVVALD: 3.35; for TIIEPAGESDNPCRFTSGLVVALD: 2.94; for AIIEPAGESDNPLRFTSGLVVALD: 2.45.
The same measure for QIIEPAGESDNPLRFTSGLVVALD: 2.96; for WIIEPAGESDNPLRFTSGLVVALD: 2.23; for GIIEPAGESDNPLRFTSGLVVALD: 3.82.
With DIIEPAGESDNPLRFTSGLVVALD the figure was 3.21; with HIIEPAGESDNPLRFTSGLVVALD, 3.23; with NIIEPAGESDNPLRFTSGLVVALD, 3.36.
In the case of TIIEPAGESMNPLRFTSGLVVALD, the protein stability index came out at 2.15.
As for TIIEPAGESTNPLRFTSGLVVALD, the protein stability index was determined as 2.63.
With TIIEPAGESSNPLRFTSGLVVALD the figure was 2.72; with TIIEPAGESDNPLRFTSMLVVALD, 1.67.
Consider TIIEPAGESDNPLRFTSRLVVALD, for which the protein stability index came to 2.24.
For TIIEPAGESDNPLRFRSGLVVALD, the protein stability index is 3.35.
On to TIIEPAGESDNPLRFMSGLVVALD, for which the protein stability index is 2.
With TIIEPAGESDNPLRFPSGLVVALD the figure was 3; with TIIEPAGESDNPLRFFSGLVVALD, 2.35.
With TIIEPAGESDNPLRFWSGLVVALD the figure was 1.76.
Turning to TIIEPAGESDNPLRFGSGLVVALD, the protein stability index was found to be 3.15.
The same measure for TIIEPAGESDSPLRFTSGLVVALD: 2.6; for TIIEPAGESDVPLRFTSGLVVALD: 2.33; for TKIEPAGESDNPLRFTSGLVVALD: 2.89.
With TYIEPAGESDNPLRFTSGLVVALD, the protein stability index is 2.32.
TWIEPAGESDNPLRFTSGLVVALD: the protein stability index is 2.38.
The same measure for TIIEPCGESDNPLRFTSGLVVALD: 2.47.
For TIIEPHGESDNPLRFTSGLVVALD, the protein stability index was 2.75.
Take TIIEPQGESDNPLRFTSGLVVALD: the protein stability index turned out to be 2.72.
The same measure for TIIEPNGESDNPLRFTSGLVVALD: 2.52; for TIIEPDGESDNPLRFTSGLVVALD: 3.7.
For TIIEPAGESDNPLRFTSGLVVALF, the protein stability index was determined as 4.12.
The same measure for TIIEPAGESDNPLRFTSGLVVALN: 2.12.
The same measure for TIIEPAGESDNPLRFTSGLVVALV: 2.33.
With TIIEPAGESDNPLRFTSGLVVALG, the protein stability index came out at 2.51.
The same measure for TIIEPAGESDNPLRFTSGLVVALM: 1.98.
TIIEPAGESDNPLRFTSGLVVALH: the protein stability index is 1.93.
With TIIEPAGESDNPLRATSGLVVALD the figure was 4.29; with TIIEPAGESDNPLRYTSGLVVALD, 2.87; with TIIEPAGESDNPLRQTSGLVVALD, 3.99.
As for TIIAPAGESDNPLRFTSGLVVALD, the protein stability index amounted to 2.76.
TIIPPAGESDNPLRFTSGLVVALD: the protein stability index worked out at 3.15.
For the variant TIIDPAGESDNPLRFTSGLVVALD, the protein stability index worked out at 3.09.
Regarding TIINPAGESDNPLRFTSGLVVALD, the protein stability index worked out at 2.09.
For the variant TIIEPAGESDNPLRFTWGLVVALD, the protein stability index is 2.14.
As for TIIEPAGESDNPLRFTYGLVVALD, the protein stability index came to 2.15.
With TIIEPAGESDNPLRFTTGLVVALD, the protein stability index amounted to 2.92.
With TIIEPAGESDNPLRFTPGLVVALD, the protein stability index stood at 2.99.
The same measure for TIIEPAGESDNPLRFTGGLVVALD: 2.9.
